Where a chain is given by its changes, count along the chain named. In names and notes the source's numbering stands. Read-outs that look alike come from different tables or passages of the source.
B1: Escherichia coli dGTPase, wild type (enzyme)
chain: MAQIDFRKKINWHRRYRSPQGVKTEHEILRIFESDRGRIINSPAIRRLQQKTQVFPLERNAAVRTRLTHSMEVQQVGRYIAKEILSRLKELKLLEAYGLDELTGPFESIVEMSCLMHDIGNPPFGHFGEAAINDWFRQRLHPEDAESQPLTDDRCSVAALRLRDGEEPLNELRRKIRQDLCHFEGNAQGIRLVHTLMRMNLTWAQVGGILKYTRPAWWRGETPETHHYLMKKPGYYLSEEAYIARLRKELNLALYSRFPLTWIMEAADDISYCVADLEDAVEKRIFTVEQLYHHLHEAWGQHEKGSLFSLVVENAWEKSRSNSLSRSTEDQFFMYLRVNTLNKLVPYAAQRFIDNLPAIFAGTFNHALLEDASECSDLLKLYKNVAVKHVFSHPDVERLELQGYRVISGLLEIYRPLLSLSLSDFTELVEKERVKRFPIESRLFHKLSTRHRLAYVEAVSKLPSDSPEFPLWEYYYRCRLLQDYISGMTDLYAWDEYRRLMAVEQ
B2: Escherichia coli dGTPase Y272A (enzyme)
chain: B1 chain with Y272A
B3: Escherichia coli dGTPase H126A (enzyme)
chain: B1 chain with H126A
B4: Escherichia coli dGTPase E129A (enzyme)
chain: B1 chain with E129A

Assays:
crystal structure = target: the molecule itself; experiment: crystal structure
[1] = target: the molecule itself

Protein	stoichiometry N (crystal structure)	stoichiometry N [1]
B1	6	–
B2	–	6
B3	–	6
B4	–	6

Reference: publication PMC6511015 (Proceedings of the National Academy of Sciences of the …, 2019)
